Drawing on PMC3659094, this text covers EC50 of recruitment of SHC1 to human TrkB in U2OS cells (Pathhunter) and EC50 of transcriptional activation of a CRE-luciferase reporter in HEK293 cells expressing human TrkB for one substance.

The experiment addresses human Tyrosine kinase receptor B (TrkB) (human) (UniProt Q16620).
UniProt Q16620, sequence (Q16620 other isoform, or with tags, fused parts or gaps): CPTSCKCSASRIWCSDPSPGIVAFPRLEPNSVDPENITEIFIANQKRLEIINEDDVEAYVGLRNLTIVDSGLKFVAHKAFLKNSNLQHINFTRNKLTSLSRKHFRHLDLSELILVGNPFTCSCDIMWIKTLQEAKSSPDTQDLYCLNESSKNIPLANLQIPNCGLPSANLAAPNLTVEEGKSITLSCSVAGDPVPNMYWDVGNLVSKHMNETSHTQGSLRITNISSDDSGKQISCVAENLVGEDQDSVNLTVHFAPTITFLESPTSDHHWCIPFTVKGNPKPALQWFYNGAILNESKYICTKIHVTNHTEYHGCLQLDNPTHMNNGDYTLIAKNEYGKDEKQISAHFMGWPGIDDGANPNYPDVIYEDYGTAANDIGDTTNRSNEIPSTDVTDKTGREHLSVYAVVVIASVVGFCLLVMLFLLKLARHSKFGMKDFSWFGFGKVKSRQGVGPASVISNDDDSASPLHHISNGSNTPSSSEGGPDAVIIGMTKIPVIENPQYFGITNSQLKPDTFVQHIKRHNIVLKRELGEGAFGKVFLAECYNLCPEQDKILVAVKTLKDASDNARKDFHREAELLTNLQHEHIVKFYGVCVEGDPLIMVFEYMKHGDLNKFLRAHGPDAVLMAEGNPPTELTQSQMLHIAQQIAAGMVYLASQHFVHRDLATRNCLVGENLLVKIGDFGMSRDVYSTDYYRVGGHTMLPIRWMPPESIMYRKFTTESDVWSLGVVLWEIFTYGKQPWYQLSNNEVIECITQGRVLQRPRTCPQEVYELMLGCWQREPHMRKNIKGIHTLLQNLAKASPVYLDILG

Substance “brain-derived neurotrophic factor (BDNF) (ligand)” yielded an EC50 of recruitment of SHC1 to human TrkB in U2OS cells (Pathhunter) of 1 nM and an EC50 of transcriptional activation of a CRE-luciferase reporter in HEK293 cells expressing human TrkB of 5.2 nM.
